Assay results as given in patent US20220220176.

Tested on: thrombin-cleavable prodrug of human NK1
Sequence (chain, as listed by the source): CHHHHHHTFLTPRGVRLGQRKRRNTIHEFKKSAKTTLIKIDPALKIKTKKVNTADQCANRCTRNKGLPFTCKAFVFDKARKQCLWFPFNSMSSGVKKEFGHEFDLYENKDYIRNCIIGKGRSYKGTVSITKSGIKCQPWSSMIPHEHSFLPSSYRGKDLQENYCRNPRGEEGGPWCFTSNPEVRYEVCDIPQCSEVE

## thrombin (Thrombin from human plasma; Sigma-Aldrich Co. LLC)
  cleavage of the protease-sensitive peptide and release of human NK1 (SDS electrophoresis, CBB staining): The treatment of each prodrug of human NK1 with the corresponding protease (ADAM17 or thrombin) was found to cleave the protease-sensitive peptide contained in the prodrug of human NK1 so that the active form, human NK1, was released.
